Results on two molecules are retold here after paper PMC11205257.

Where two headings read alike, the source gives them in different places.

In test [1] the target is GRAB CRF1.0 sensor (human (GPCR scaffold cDNA)). Nature of the test: other fluorescence titration.
The target is the same in test [2]. Briefly: other fluorescence titration. This is another data set of the same source.

B1: urocortin 1 (UCN1) (peptide)
peptide: DNPSLSIDLTFHLLRTLLELARTQSQRERAEQNRIIFDSVGK
As for B1, the EC50 in test [1] was determined as 69 nM.

B2: corticotropin-releasing factor (CRF) (peptide)
peptide: SEEPPISLDLTFHLLREVLEMARAEQLAQQAHSNRKLMEIIGK
B2: the half-maximal effective concentration (EC50) in test [2] turned out to be 18.6 nM; in test [1], 33 nM.
